Test results from paper PMC10881024, “No evidence for a direct extracellular interaction between human Fc receptor–like 3 (MAIA) and the sperm ligand IZUMO1” (Science Advances, 2024).

Target: T1, human IZUMO1 entire ectodomain, biotinylated, rat Cd4 domains 3 and 4 tagged (bait construct) (human, UniProt Q8IYV9 22-285, enzymatically biotinylated (BirA) on the biotinylation target sequence)
T1 construct: IZUMO1, human, entire ectodomain, truncated at P285 of Q8IYV9; Monomer as expressed; also called IZUMO1 bait; biotinylated monomeric IZUMO1; source: HEK293-6E, transient transfection, cotransfected with secreted BirA; conditioned medium dialysed in PBS, or purified from spent medium on Ni-NTA (SAVEXIS); not shown: domains 3 and 4 of rat CD4, C-terminal, kept
T1 sequence (Q8IYV9 22-285): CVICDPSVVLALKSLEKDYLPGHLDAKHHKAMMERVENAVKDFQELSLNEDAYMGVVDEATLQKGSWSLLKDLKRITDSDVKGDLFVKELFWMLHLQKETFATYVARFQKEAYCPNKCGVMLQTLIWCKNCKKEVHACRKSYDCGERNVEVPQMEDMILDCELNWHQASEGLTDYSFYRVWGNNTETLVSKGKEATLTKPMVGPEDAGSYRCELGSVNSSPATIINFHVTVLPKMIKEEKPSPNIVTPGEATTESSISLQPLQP
Experiment: SAVEXIS; purified monomeric biotinylated baits at 13.4 nM captured on streptavidin-coated plates 16 hours at 4°C; preys made multimeric by clustering biotinylated monomers around streptavidin-HRP, 4.4 nM, 1 hour at room temperature; HBS-T washes with desthiobiotin; tetramethylbenzidine, absorbance at 650 nm
Details: both partners purified

- binding result: binds
B1: human JUNO entire ectodomain, biotinylated, rat Cd4 domains 3 and 4 tagged (bait construct) (domain or fragment, UniProt A6ND01 20-231, looked up)
chain: GDELLNICMNAKHHKRVPSPEDKLYEECIPWKDNACCTLTTSWEAHLDVSPLYNFSLFHCGLLMPGCRKHFIQAICFYECSPNLGPWIQPVGSLGWEVAPSGQGERVVNVPLCQEDCEEWWEDCRMSYTCKSNWRGGWDWSQGKNRCPKGAQCLPFSHYFPTPADLCEKTWSNSFKASPERRNSGRCLQKWFEPAQGNPNVAVARLFASSAP
modifications: enzymatically biotinylated (BirA) on the biotinylation target sequence
notes: JUNO, human, entire ectodomain, truncated at P231 of A6ND01; also called JUNO bait; human JUNO (bait); source: HEK293-6E, transient transfection, cotransfected with secreted BirA; conditioned medium dialysed in PBS (AVEXIS), or purified from spent medium on Ni-NTA (SAVEXIS); not shown: domains 3 and 4 of rat CD4, C-terminal, kept
